Measurements taken from patent publication US20230398232A1 (NAVROGEN, published 2023).

Experiments:
human serum albumin = target: T1, human serum albumin (human, UniProt P02768 25-609); experiment: ELISA, plate coated with 1 µg/mL HSA, probed with antibody
T1 construct: Negative control, coated at 1 ug/mL; also called HSA
Experimental: Antibodies were tested for uptake by incubating each with the human ovarian cancer cell line OVCAR3 that express mesothelin and membrane bound CA125. The parental line was used to generate an isogenic CA125 knockdown line via shRNA (referred to as OVCAR3-KO). Both Ab-3 and Ab-4 uptake were measured in replica in black 96-well microplates over the course of 24 hours measuring intracellular fluorescence on a Varioskan™ plate reader. […] Statistical analysis was done using a two-sided student's T-test.
Several studies have reported that antibodies that are bound by CA125 are negatively affected in eliciting humoral mediated immune killing as well as ADC-mediated killing of target cells (Kline J B, et. al. OncoTarget 8:52045-52060, 2017; Kline J B, et al. Eur J Immunol 48:1872-1882, 2018; Kline J B, et al. J Clin Oncol 5:15, 2018; Nicolaides N C, et al. Cancer Biol Ther 13:1-22, 2018; Nicolaides et. al. USPTO application 1698444). In an attempt to identify anti-mesothelin antibodies that naturally are not bound by CA125, we obtained a number of anti-mesothelin antibodies from academic and commercial sources (National Cancer Institute, Creative Biolabs, Novus, etc.) and tested them for CA125 binding. […] Recombinant mesothelin was used as a positive control and human serum albumin (HSA) was used as negative control. […]

[1] = target: T2, soluble human CA125 protein (human, UniProt Q8WXI7 1-14451, limits assumed); experiment: ELISA, plate coated with 15 KU/mL soluble CA125, probed with antibody, anti-Fc-HRP detection
T2 construct: Coated on the ELISA plate at 15 KU/mL; also called MUC16/CA125; soluble CA125
Experimental: FIG. 1A. Screening for anti-mesothelin antibodies not bound by the immunosuppressive CA125 protein; identification of MES-1 antibody (SEQ ID NO: 1 and 2). Briefly, 96-well ELISA plates were coated with 15 KU/mL of soluble CA125, 1 μg/mL of recombinant human mesothelin protein as a positive control and 1 μg/mL of human serum albumin (HSA) as a negative control and probed with 2.5 μg/mL of different anti-mesothelin antibodies to determine if they are bound by CA125. Wells were washed and detected for binding via a secondary anti-human or anti-rodent Fc-horseradish peroxidase (HRP) conjugated antibody and 3,3′,5,5′-Tetramethylbenzidine (TMB) substrate. Reactions were stopped with 0.1N H₂SO₄ and wells quantified using a multi-well plate reader (Varioskan™, ThermoFisher) at 450 nm. As shown, the antibody MES-1 consisting of SEQ ID NOs: 1 and 2 [Ab-3 (lane 3)] was not bound by CA125 while the other four anti-mesothelin antibodies tested were all bound by CA125. Values were determined from the average of triplicate wells. Statistical analysis was done using student's T-test. FIG. 1B. […] Both Ab-3 and Ab-4 uptake were measured in replica in black 96-well microplates over the course of 24 hours measuring intracellular fluorescence on a Varioskan™ plate reader. […]

binding result (human serum albumin): no binding (tested: 2.5 µg/mL) | binding result [1]: no binding (tested: 2.5 µg/mL)
B1: MES-1 antibody (antibody, human IgG1, kappa, V domains shown)
VH: EVQLVESGGGLVQPGGSLRLSCAASGFDLGFYFYACWVRQAPGKGLEWVSCIYTAGSGSTYYASWAKGRFTISRDNSKNTLYLQMNSLRAEDTAVYYCARSTANTRSTYYLNLWGQGTLVTVSS
VL: DIQMTQSPSSLSASVGDRVTITCQASQRISSYLSWYQQKPGKVPKLLIYGASTLASGVPSRFSGSGSGTDFTLTISSLQPEDVATYYCQSYAYFDSNNWHAFGGGTKVEIKR
notes: For the uptake assay the antibody carried the pHrodo dye; also called meso-Ab3; Ab-3
